Patent US20210284724A1 (I MAB BIOPHARMA US, published 2021)
Where a chain is given by its changes, count along the chain named. Numbers in names are those of the source. Like-named read-outs stand apart in the source and are kept apart here. Values belong to the binder of their own block, whether it stands above or below them.

Columns and labels:
[1] = target: T1, cynomolgus CXCL13 (cynomolgus, UniProt H6WS58 23-109); experiment: ELISA, coated antigen, chimeric IgG1
T1 construct: also called cynoCXCL13; Cyno CXCL13
T1 sequence: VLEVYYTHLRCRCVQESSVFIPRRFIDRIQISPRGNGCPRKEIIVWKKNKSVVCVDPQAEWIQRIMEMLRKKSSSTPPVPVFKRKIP
Experimental: (§1) Elisa based binding assay. […] Briefly, 100 μl of human CXCL13 or cynomolgus CXCL13 was coated at 0.5 μg/ml overnight and then blocked by 200 μl of 5% BSA in PBS. Serial diluted antibodies were incubated with the coated antigen for 30 min at RT. The resulting plates were washed with PBS/T and incubated with goat anti-human IgG Fc-HRP for 30 min RT. The plates were developed with TMB substrate after washing with 1×PBST for 5 times and reaction stopped with 1N HCl and analyzed by spectrophotometer at OD 450-630 nm.

[2] = target: T2, human CXCL13 (human, UniProt O43927 23-109); experiment: ELISA, coated antigen, chimeric IgG1
T2 construct: also called huCXCL13; rhCXCL13
T2 sequence (looked up): T1 sequence with H8S, S32L, V52I, I65M, M68V, K72R, P77L
Experimental: as §1

[3] = target: T2, human CXCL13; experiment: cell-based blocking ELISA, CXCL13 to CHO-K1-CXCR5
Experimental: This example tested the blocking of the anti-CXCL13 chimeric antibodies to CHO-K1-CXCR5 cells. Briefly, 5×10⁴ CHO-K1-CXCR5 cells were plated in 96-well plate with 100 μl of culture medium and incubated at 37° C. overnight. Cells were fixed with 100 μl of 2% PFA at RT for 1 hr after washing with PBS for 1 time. Samples were blocked with 1% BSA in PBST for 1 hr at RT. Antibodies were serial diluted from 50 μg/ml by 3-fold with 1% BSA/PBST and pre-incubated with equal volume of 0.3 μg/ml human CXCL13 for 30 min at RT. 100 μl of antibody-antigen complex was transferred into each cell wells for 30 min at RT. Samples were washed with 1×PBST for 3 times and 100 μl of 3 μg/ml of human Mab5261 antibody was added into each well to capture human CXCL13 and anti-human Fc-HRP was used to indirectly detect human CXCL13 when it bound to CHO-K1-CXCR5 cells.
Then read at 450 nm. […] Among all clones, 415A3D1, 64C10G1, 1H3A11, 414D10F5, 411A11E9, 21H12D9, 71F4A3, 329F2E1 show completely blocking activity and 408E3F3, 19H7E10, 339A6E7 appeared to be partial blockers.

[4] = target: T2, human CXCL13; experiment: SPR Biacore T200
Experimental: (§2) In the second approach, mutations were carried out by multiple libraries including 4 different sub libraries, such as saturated mutation libraries by CDR walking for CDR L1, CDR L3, CDR H3 or CDR L2, CDR H1, CDR H2 and saturated mutation libraries by three aa mutated continuously for CDR H3 or CDR L3. After finishing construction of phage sub libraries, antigen CXCL13 screening followed. Antibodies of these sequences were generated, and affinity testing was performed by Biacore T200. To further optimize the antibodies, the lead clones were then back mutated to its humanized counterpart one aa by one aa. Sequences were generated and synthesized for antibodies. Affinity was tested by Biacore T200.

[5] = target: T2, human CXCL13; experiment: SPR Biacore T200; remark: listed apart in the source
Experimental: as §2

[6] = target: T2, human CXCL13; experiment: SPR Biacore T200; remark: listed apart in the source
Text: In the first approach, mutations were chosen to target the hotspots in LCDR1, HCDR2 and HCDR3. Usually, CDR3 contributes most to antigen binding and heavy chain is more important than light chain for antigen binding. Moreover, LCDR1 is important for antigen binding. For the first trial, random mutations were targeted to hotspots in LCDR1, HCDR2 and HCDR3. Eliminate hotspots that code for conserved and buried amino acids in CDRs. […] After finishing construction of phage library, antigen CXCL13 screening was followed. Antibodies of these sequences were generated, and affinity testing was performed by Biacore T200.

[7] = target: T2, human CXCL13; experiment: ELISA, huCXCL13 coated on the plate, full length humanized IgG1 titrated, OD450
[8] = target: T2, human CXCL13; experiment: ELISA, huCXCL13 coated on the plate, full length humanized IgG1 titrated, OD450; remark: listed apart in the source
How it was run: (§3)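 Human CXCL13 (100 μl at 0.5 μg/ml) was coated onto plates overnight and blocked with 200 μl 5% BSA in PBS. Serially diluted IgG1 antibodies were bound for 30 min at room temperature. After PBS/T washes, goat anti-human IgG Fc-HRP was added for 30 min at room temperature. EC50 came from the antibody titration.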

[9] = target: T2, human CXCL13; experiment: ELISA, huCXCL13 coated on the plate, chimeric IgG1 titrated, OD450
How it was run: as §3

[10] = target: T2, human CXCL13; experiment: as above; remark: listed apart in the source
How it was run: as §3

EC50 [1]: 0.0469 µg/mL
EC50 [2]: 0.0729 µg/mL
IC50 [3]: 0.985 µg/mL
B1: 415A3D1 chimeric human IgG1 antibody (antibody, V domains shown)
VH: EVKLLESGGGLVQAGGSMRLSCGAFGFTVTDFYINWIRQPAGKAPEWLGFMRNKANGYTTEYNPSVKGRFTISRNNTQNMPYLQMNTLRTEDTAIYYCARSRYNADDYYVGVMDVWGQGASVTVSS
VL: DIQMTQFPASLSASLGETVSIECLASEDIYNNLAWYQQKPGKSPQLLIYYTNSLQDGVPSRFSGTGSGTQYSLKINSLESEDAATYFCLQDSEYPWTFGGGTKLKLK
notes: Chimeric human IgG1; label 415A3D1 read as clone 415A3D1F4

EC50 [1]: 0.1 µg/mL
EC50 [2]: 0.0485 µg/mL
IC50 [3]: 1.71 µg/mL
B2: 411A11E9 chimeric human IgG1 antibody (antibody, V domains shown)
VH: EVQLVESGGGLVQPGGSLKLSCVVSGFTFSDYYMAWVRQTPTKGLEWVASINYDGGDTYYRDSVKGRFTVSRNNAKSSLFLQMDSLRSEDTATYYCKTEEDYDGSYVMDAWGQGASVIVSS
VL: DIQMTQSPSFLSASVGDRVTISCKASQNINKELTWYQQKLGKAPKRLIYNTNILQTGIPSRFSGSGSNTDYTLTISSLQPEDFATYFCLQQSSLYTFGAGTKLELK
notes: Chimeric human IgG1

EC50 [1]: 1.19 µg/mL
EC50 [2]: 0.0628 µg/mL
IC50 [3]: 1.26 µg/mL
B4: 414D10F5 chimeric human IgG1 antibody (antibody, V domains shown)
VH: EVQLAESGGGLVQPGRSLKLSCSASGFTFSDYYMAWFRQAPPKGLEWVASISYDGGDSFYRDSVKGRFTISRDNAKSSLYLQMDSLRSEDTATYYCTTEEDYSGSFPDYWGQGVMVTVSS
VL: DIQMTQSPSFLSASVGDRVTINCKASQNINKYLNWYQQKLGEAPKRLIYDTNNLQAGIPSRFSGSGSGTDYTLTINSLQPEDFATYFCLQHNSLYTFGGGTKLELK
notes: Chimeric human IgG1

EC50 [7]: 0.0961 nM
B7: 71F4A3-VH1VL2 (D54E) humanized IgG1 (antibody, V domains shown)
VH: EVQLVESGGGLVQPGGSLRLSCAASGIDFSRYWMSWVRQAPGKGLEWVAEINPESSTINYAPSLKDRFTISRDNAKNSLYLQMNSLRAEDTAVYYCARQDDYEYYAMDYWGQGTTVTVSS
VL: DIQMTQSPSSLSASVGDRVTITCKASQDVNTGVAWYQQKPGKAPKLLIYSASYRYTGVPSRFSGSGSGTDFTFTISSVQPEDIATYYCQQYYSTPLTFGGGTKLEIK
notes: Full length IgG1, human gamma 1 and kappa constant domains

EC50 [1]: 0.0416 µg/mL
EC50 [2]: 0.0511 µg/mL
IC50 [3]: 3.55 µg/mL
B12: 329F2E1 chimeric human IgG1 antibody (antibody, V domains shown)
VH: EVKLLQSGGGLVQPGGSLKLSCAASGIDFSRYWMSWVRRAPGKGLEWIGEINPDSSTINYAPSLKDKFIISRDNAKNTLYLQMSKVRSEDTALYYCARQDDYDYYAMDYWGQGTSVTVSS
VL: DIVMTQSHKFMSTSVGDRVSITCKASQDVSTGVAWYQQKPGQSPKLLIYSASYRYTGVPDRFTGSGSRTDFTFTISSVQTEDPAVYYCHQYYTIPLTFGAGTELELK
notes: Chimeric human IgG1

Second part, the binder before the results:

B3: 21H12D9 chimeric human IgG1 antibody (antibody, V domains shown)
VH: EVQLQQSGPVLVRPGASVKMSCKASGYTFTDYYMNWVKQSHGKSLEWIGVINPNNGGTTYKEKFKGKATLTVDKSSGTAYMELNSLTSEDSAVYYCARDDYDAGYWGQGTTLTVSS
VL: DIVMTQFQKFMSTTVGDRVSITCKASQNVDTAVAWYQHKPGQSPKLLIYSASHRYTGVPDRFTGSGSGTDFTLTISNVQSEDLADYFCQQYTDFPLTFGAGTKLELK
notes: Chimeric human IgG1
EC50 [1]: 0.0488 µg/mL
EC50 [2]: 0.0536 µg/mL
IC50 [3]: 1.89 µg/mL

B5: 71F4A3-VH1VL1 (Hz71F4) (D54E) humanized IgG1 (antibody, V domains shown)
VH: B7 VH
VL: B7 VL with V78L
notes: Full length IgG1, human gamma 1 and kappa; also called Hz71F4A3
apparent Kd (pooled screen) [4]: 2.58 nM
apparent koff (pooled screen) [4]: 0.000645 s⁻¹
apparent kon (pooled screen) [4]: 250000 M⁻¹ s⁻¹
apparent koff (pooled screen) [5]: 0.00126 s⁻¹
apparent kon (pooled screen) [6]: 377000 M⁻¹ s⁻¹
apparent EC50 (pooled screen) [7]: 0.108 nM

B6: 005-3-18 (antibody, V domains shown)
VH: B7 VH with A106T
VL: B7 VL with A25V, V78L, Y92W
Kd [4]: 1.24 nM
koff [4]: 0.000153 s⁻¹
kon [4]: 124000 M⁻¹ s⁻¹
koff [5]: 0.000158 s⁻¹

B8: 005-2-45 (antibody, V domains shown)
VH: B7 VH with Y102T, E103R
VL: B7 VL with V78L
koff [5]: 0.000776 s⁻¹

B9: 005-3-23 (antibody, V domains shown)
VH: B7 VH with D100E, M107L
VL: B7 VL with A34Y, V78L, Y91G
koff [5]: 0.000403 s⁻¹

B10: 64C10G1-VH1VL3 (D53E, D107E) humanized IgG1 (antibody, V domains shown)
VH: EVQLVESGGGLVQPGGSLRLSCAASGFTFSSYAMSWVRQAPGKGLEWVATISEGGSDAYYPDNVKGRFTISRDNAKNSLYLQMNSLRAEDTAVYYCARDYYGSGYEESPMDYWGQGTLVTVSS
VL: DIQMTQSPSSLSASVGDRVTITCKASQDINKYIAWYQQKPGKAPKLLIHYTSTLQPGIPSRFSGSGSGTDFTFTISSLQPEDFATYYCLQYDNLYTFGGGTKLEIK
notes: as for B7
EC50 [8]: 0.0664 nM

B11: 71F4A3 chimeric human IgG1 antibody (antibody, V domains shown)
VH: B12 VH with D103E
VL: B12 VL with F10S, S30N, Q37R, R68G, T80A, P83L, H89Q, T93S, I94T, E103K
notes: Chimeric human IgG1; also called chimeric 71F4A3
EC50 [1]: 0.0814 µg/mL
EC50 [2]: 0.0381 µg/mL
IC50 [3]: 3.02 µg/mL
EC50 [9]: 0.116 nM

B13: 64C10G1 chimeric human IgG1 antibody (antibody, V domains shown)
VH: EVQLVESGGGLVKPGGSLKLSCAASGFTFSSYAMSWVRQTPEKRLEWVATISDGGSDAYYPDNVKGRFTISRDNAKNNLYLQMSHLKSEDTAMYYCARDYYGSGYEDSPMDYWGQGTSVTVSS
VL: DIQMTQSPSSLSASLGGKVTITCKASQDINKYIAWYQHKPGKGPRLLIHYTSTLQPGIPSRFSGSGSGRDYSFSISNLEPEDFATYYCLQYDNLYTFGGGTKLEIK
notes: Chimeric human IgG1; also called chimeric 64C10G1
EC50 [1]: 0.0563 µg/mL
EC50 [2]: 0.0401 µg/mL
IC50 [3]: 1.1 µg/mL
EC50 [10]: 0.0305 nM

B14: 1H3A11 chimeric human IgG1 antibody (antibody, V domains shown)
VH: B13 VH with A58T, G104S, S108Y, P109A
VL: B13 VL with A34T, F83I
notes: Chimeric human IgG1
EC50 [1]: 0.144 µg/mL
EC50 [2]: 0.0553 µg/mL
IC50 [3]: 1.19 µg/mL
